This is an account of results in the DeepSol protein solubility set.

The data set in a line: soluble on expression in E. coli; label from the status in PepcDB or PDB records.
Take “MMFDRRFFALVVLLCVSAVRSTEDASDDELNYEMDEGVVVLTDKNFDAFLKKNPSVLVKFYAPWCGHCKHLAPEYEKASSKVSIPLAKVDATVETELGKRFEIQGYPTLKFWKDGKGPNDYDGGRDEAGIVEWVESRVDPNYKPPPEEVVTLTTENFDDFISNNELVLVEFYAPWCGHCKKLAPEYEKAAQKLKAQGSKVKLGKVDATIEKDLGTKYGVSGYPTMKIIRNGRRFDYNGPREAAGIIKYMTDQSKPAAKKLPKLKDVERFMSKDDVTIIGFFATEDSTAFEAFSDSAEMLREEFKTMGHTSDPAAFKKWDAKPNDIIIFYPSLFHSKFEPKSRTYNKAAATSEDLLAFFREHSAPLVGKMTKKNAATRYTKKPLVVVYYNADFSVQYREGSEYWRSKVLNIAQKYQKDKYKFAVADEEEFAKELEELGLGDSGLEHNVVVFGYDGKKYPMNPDEFDGELDENLEAFMKQISSGKAKAHVKSAPAPKDDKGPVKTVVGSNFDKIVNDESKDVLIEFYAPWCGHCKSFESKYVELAQALKKTQPNVVLAKMDATINDAPSQFAVEGFPTIYFAPAGKKSEPIKYSGNRDLEDLKKFMTKHGVKSFQKKDEL”: the “soluble on expression in E. coli” value is on record as “not soluble”.

For the sequence “MMFWDSEVAKRLLAQGALRPLDVQFARFIGKQAVLAGHNAAESELLSVLSAALSAELGRGHICLPLCDAQGNRCDLAALIGLYGEASLQHSERWLAVDWQALLQASPLVGQQGEAVPLMFDGSRLYLHRYWHYEKQLAARLTELAAPQRLSPAELANLRERLNTLFARDYLGLWQALQQKPLSSVERIQLLNDRLDVVESDALDWPAIEAVVEKAQRAADLQALEQLIPLTHCLNWQKVAAAVALTRRFAVISGGPGTGKTTTVTKLLAALISQSMAQGKVPEIKLIAPTGKAAARLTESMGKAVSQLAIEPEIAAAIPSSSSTIHRLLGAIPGSAEFRHHTRNPLHLDLLVVDEASMVDLPLMVKLVEALPKHARLILLGDKDQLASVEAGAVLGDICTFLNQGYGHEQGAQLAELTGFATLRQTASKTVNPVADCLCMLQKSYRFDARSGIGQLAKAINSGSPARVEAVWQQSFSDIEHFALSGEHYQQLLQTLVQAYRPYLSLLNQPTEQFESTQQSMLTLAKSALDAFSRCRLLCALREGDFGVMGLNTRIERALNAHKLIKTQEEIWYHGRPIMVTRNDHGLGLYNGDIGLCMRDRDDDQGRLKVYFELPDGSIKAVLPSRVPQHETAYAMTIHKSQGSEFDLTLLILPPDYSPILTRELVYTGITRAKKQLKLYCDNKVLQRAIKVKTQRASGLVARLEQ”, the “soluble on expression in E. coli” value is given as “not soluble”.

On to “MMGDSVIYYVEQADEPVNRADERARKTFKYFWRELFWERRRIISALDFAMVKVPFFQDGEDGEICEHMWIDDIYFDGLYIYGVLNNEPGELTNVEQGESVCVPVDDISDWMFVCNGIPYGGFTIQAMRGQMTEEERTEHDAAWGIDFGDPGQILLVYEEKEHPENLEE”, for which the “soluble on expression in E. coli” value was “not soluble”.

Take “MMIIGINGSPRKNGNTIEMLKSALDGAKAQGAETELINLYDYNYKGCVSCFSCKLKGGRSYGKCALKDDLKPILEKIEKADAFILASPIYFGMVTGEMRSFMERLLFQYLVYDKDHSSLFNRKIKTGFIYTMNVPETYLDSVGYNKLFESNEATLKRIFGASEYILSTDTYQFDDYSKYEASMFDVEAKKKRREEVFPEDCKRAYEMGASFVKLEHHHHHH”: the “soluble on expression in E. coli” value is “not soluble”.

Regarding “MMIVIKTAIPDVLILEPKVFGDERGFFFESYNQQTFEELIGRKVTFVQDNHSKSKKNVLRGLHFQRGENAQGKLVRCAVGEVFDVAVDIRKESPTFGQWVGVNLSAENKRQLWIPEGFAHGFVTLSEYAEFLYKATNYYSPSSEGSILWNDEAIGIEWPFSQLPELSAKDAAAPLLDQALLTE”, the “soluble on expression in E. coli” value was “soluble”.

“MMKAIPVEQAVGTVLCHDLTRIVPGEHKGRAFRKGHIVTEADIPLLLSIGKEHLYVLNLEAHQLHEDEAALRIATAAAGPGISLSEVSEGRINFMASPGLLCVDVEALNAINAIDEVALATMHSGQFIAARRAVAGTRVVPLVIDESKIRQVERICAASYPVVQVKPLRSHSIGVVTTGSEIFHGRIKDKFGPVMRDKFAALGSSVMGQRLVGDAPEATRDAILSFIGEGADMVVVTGGMSVDPDDQTPASIRATGAEVVTYGSPTFPGVMFMLAYLNDIPVLGLPGCVMYYRASIFDLVVPRLLAGERLARRDITSLGHGGFCAGCETCHHPVCPFGKLEHHHHHH”: the “soluble on expression in E. coli” value was “not soluble”.

In the case of “MMKPVLHFSKLYEVKKLLRKSRLYTVCEESRCPNISECFGNKTATFMILGNRCTRRCAFCNVEKGFPKGVDPEEPYRLLEAVKTLGLKYVVITSVTRDDLPDGGASHFAKCIRVLKENIEDIKVEVLIPDFRGNKKALEVVLKEKPVVLNHNVETVPRLYPSVRIGANYKRSLNILKWSKEIDKSVYTKSALILGFGERKEEVIKVMEDLRSVDCDFLVLGQYYQPSLKHHPVVKYYSEEEFKEFEEIGYEMGFKFVVSKPNARSSYKAFESLLSTLEHHHHHH”, the “soluble on expression in E. coli” value is listed as “not soluble”.

As to “MMNDGKQQSTFLFHDYETFGTHPALDRPAQFAAIRTDSEFNVIGEPEVFYCKPADDYLPQPGAVLITGITPQEARAKGENEAAFAARIHSLFTVPKTCILGYNNVRFDDEVTRNIFYRNFYDPYAWSWQHDNSRWDLLDVMRACYALRPEGINWPENDDGLPSFRLEHLTKANGIEHSNAHDAMADVYATIAMAKLVKTRQPRLFDYLFTHRNKHKLMALIDVPQMKPLVHVSGMFGAWRGNTSWVAPLAWHPENRNAVIMVDLAGDISPLLELDSDTLRERLYTAKTDLGDNAAVPVKLVHINKCPVLAQANTLRPEDADRLGINRQHCLDNLKILRENPQVREKVVAIFAEAEPFTPSDNVDAQLYNGFFSDADRAAMKIVLETEPRNLPALDITFVDKRIEKLLFNYRARNFPGTLDYAEQQRWLEHRRQVFTPEFLQGYADELQMLVQQYADDKEKVALLKALWQYADEIVEHHHHHH”, the “soluble on expression in E. coli” value was “soluble”.

As to “MMNVPEGFQPLFRSSPLLDLLGPFFCRQDAQRQLVVALRIDEKHCNHGGTAHGGLLSTLADVGLGYAMAFSREPPQPMVTVGLRLDFCGVARVGDWLEVHTRVDKLGQRMAFASARLHSGERLVASASGVFHLP”, the “soluble on expression in E. coli” value is “not soluble”.

For “MMPNVAPNSYYLNIPNANSTSTTTSSIFSDLNKEYESKIKEIEEYYIKTLLNENTDNDDSSSSEGHNINETDILSEYSPRPSPWLPSKPNCYHPLGDFKDLIISDSRPTNTLPINNPFAGNNNISTLATTEKKRKKRSLEVRVNPTYTTSAFSLPLTAENLQKLSQVDSQSTGLPYTLPIQKTTKLEPCRRAPLQLPQLVNKTLYKTELCESFTIKGYCKYGNKCQFAHGLNELKFKKKSNNYRTKPCINWSKLGYCPYGKRCCFKHGDDKDVEIYQNANDGRSKDTALTPLPTSLAPSNNDNITNLSKPRNLHTSVKALQRMTW”, the “soluble on expression in E. coli” value was “not soluble”.

On to “MMQFEVKDLINKIKKDGLEEAERASNDIILKAKREAEEIVARAEEAARVLKAKSEKEANDYKCHALEASRQAIRDLIIGVEKNLKSLFENALKDNVTEVLSDNNFLAELIIKITDSWAKGEKLVIQLNESDFSSLEQILRLKLGNKLKEGMELRPFRGISKGFKIQKKNIGLHYDFSAETIADILFDYLNPRFKEVIKVV”, for which the “soluble on expression in E. coli” value is reported as “not soluble”.

With “MMQPLYLVGPRGCGKTTIGMALAQATGFRFADTDRWLQSHVQMSVADIVEKEGWGGFRARETAALEAVSAPSTVVATGGGIILTEYNRRYMHRVGVVIYLCAPVSTLVNRLEAEPEADLRPTLTGKPLSEEVREVLEQRDALYRETAHYIIDATKAPAQVVSEIIAALPPSTQRLQGDVYT”, the “soluble on expression in E. coli” value was “not soluble”.

For the sequence “MMRGSHHHHHTDPISYIIRKADSVNKALDSAVPLREPLKIHEAMRYSLLAGGKRVRPVLCIAACELVGGEESLAMPAACAVEMIHTMSLIHDDLPCMDNDDLRRGKPTNHKVYGEDVAVLAGDALLSFAFEHLASATSSEVSPARVVRAVGELAKAIGTEGLVAGQVVDISSEGLDLNNVGLEHLKFIHLHKTAALLEASAVLGGIIGGGSDEEIERLRKFARCIGLLFQVVDDILDVTKSSKLTYPKLMGLEKSREFAEKLNTEARDQLLGFDSDKVAPLLALANYIANRQN”, the “soluble on expression in E. coli” value is given as “soluble”.

For the sequence “MMRTWQSKLHVTQHEVKLLVTCPEQGDVLKARLPPHARHPRALLTLLEGLSLYNGQPQRIALHVDERFRLTAGLFGDELWPGESPLVQYDVAHRARQCGRLSGIGDFRALRRGSP”, the “soluble on expression in E. coli” value is recorded as “not soluble”.

In the case of “MMSGGYKSSGVGNDRSQRSVFVGNISYDVSEDTIRSIFSKAGNVLSIKMVHDRETGKPKGYGFIEFPDIQTAEVAIRNLNGYELSGRILRVDSAAGGMNMEEFGSSSNAPAPVEENPYGPECDAGKAPERISQTVASLAPEKMFELMKQLQESLKNNPSELHKFLVEHPQIAYAVLQAAVVMRIVDPQTALGLLHRNKAATLTPFHNTPQGAPPMVQQQQMPMPPKPTFAHPGPSMGPPMGPPMGPPMGHPQAPQYGQNYGQPVAPQQYKPPPQQQPPVQMRPPVQQPQQNHQEEQQNAELLMQVMQLSEHDLQMLPAGDREKIIELRQQLKRNVK”, the “soluble on expression in E. coli” value is “not soluble”.

“MMSGQGKRLMVMAGGTGGHVFPGLAVAHHLMAQGWQVRWLGTADRMEADLVPKHGIEIDFIRISGLRGKGIKALIAAPLRIFNAWRQARAIMKAYKPDVVLGMGGYVSGPGGLAAWSLGIPVVLHEQNGIAGLTNKWLAKIATKVMQAFPGAFPNAEVVGNPVRTDVLALPLPQQRLAGREGPVRVLVVGGSQGARILNQTMPQVAAKLGDSVTIWHQSGKGSQQSVEQAYAEAGQPQHKVTEFIDDMAAAYAWADVVVCRSGALTVSEIAAAGLPALFVPFQHKDRQQYWNALPLEKAGAAKIIEQPQLSVDAVANTLAGWSRETLLTMAERARAASIPDATERVANEVSRVARALEHHHHHH”: the “soluble on expression in E. coli” value was “soluble”.

As for “MMSSQAWTDVENDLIVADYFAMLAEDVAGHPYNKAEHRRQLLPRLNDRSDGSVEFKHQNISAVLKGLGEVWITGYKPAFNFQTSLVDAVARWLVINPGWTHRTLSSRPVDGMAEAAQLWVGPAPTLTNQPSPDELEQMLHIAKKFDVAARDGRNRALGKAGEERVLKHERNTLTAAGREDLAQQIRWVSEEEGDGAGYDIASFDADGRQRLIEVKTTNGWERTPFHISRNELAVADERREEWCLFRLWNFARTPKAFELRPPLDAYVSLTATSFQASIHLEHHHHHH”, the “soluble on expression in E. coli” value is “not soluble”.

Take “MMTNPKVIILGGRFGGLQTAYELKRYLKGKIDIKLIERNRYIYFRPALPHVAIGLENPDDLRIDISEALSAKGIEYIQGTVTRIDPAKNTVEYNKEGAGPSKEKYDYLVIALGSHLATELITGFEKFGSSVCEADLALSMWNKLNAFKGGNITLGSAKFIQDNKNRPTNNPDAYAPLLESACEGPVYEMSIMLYDYFKAKGMLDKVKMTVYSPGKYLSDLSETNRATVAAMYKGMDIDIVDNFVLKEVTEKEVISEDGKRLPSDLSFILPPYMGQQMVKDAGLGDEAGFVLTDTNMKSVKYDNVYAVGDINALIVPKMAALAVKSARIAAANIANNLGNKVPIEVYDPKIVCIADDPYGKYAVAIVDSTAYGGNISEAVPSAANHLKKSLFTRYFLWSKGDLAMDKYLTSWLEHHHHHH”: the “soluble on expression in E. coli” value is listed as “not soluble”.
